Results as given in publication PMC7710921 (Structure (London, England : 1993), 2020).

What was measured:
[1] = biological target: unlabelled hTBP (human TATA-box Binding Protein) (human) (UniProt P20226); assay: single-molecule two-colour nanometer co-localisation
His-tagged Rap74 = biological target: T1, His-tagged Rap74 (human, UniProt P35269 1-517); assay: reconstitution by refolding and Ni-NTA co-purification
T1 sequence (looked up): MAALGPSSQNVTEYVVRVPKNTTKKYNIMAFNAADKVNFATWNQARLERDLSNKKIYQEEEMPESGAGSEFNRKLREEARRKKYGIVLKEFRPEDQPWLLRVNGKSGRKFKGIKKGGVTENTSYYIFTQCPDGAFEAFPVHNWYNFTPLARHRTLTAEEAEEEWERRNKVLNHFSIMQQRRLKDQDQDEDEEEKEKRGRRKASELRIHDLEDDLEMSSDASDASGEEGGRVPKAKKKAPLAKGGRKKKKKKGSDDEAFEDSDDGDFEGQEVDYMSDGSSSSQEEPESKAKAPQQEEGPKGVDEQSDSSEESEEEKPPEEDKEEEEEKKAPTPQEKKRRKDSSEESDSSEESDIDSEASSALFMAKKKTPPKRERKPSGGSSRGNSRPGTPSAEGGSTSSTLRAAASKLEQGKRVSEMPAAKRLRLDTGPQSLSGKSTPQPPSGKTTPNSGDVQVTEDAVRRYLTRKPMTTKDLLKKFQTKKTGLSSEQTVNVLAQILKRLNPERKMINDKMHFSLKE

## Alexa647-labelled hTFIIA (from UniProt P52655 1-376; P52657 1-109) (complex)
[1]
  percent of TFIIA spots co-localised with TATA-box DNA in the presence of TBP: 45%

B1: Rap30 (natural protein, human, UniProt P13984 1-249, looked up)
chain: MAERGELDLTGAKQNTGVWLVKVPKYLSQQWAKASGRGEVGKLRIAKTQGRTEVSFTLNEDLANIHDIGGKPASVSAPREHPFVLQSVGGQTLTVFTESSSDKLSLEGIVVQRAECRPAASENYMRLKRLQIEESSKPVRLSQQLDKVVTTNYKPVANHQYNIEYERKKKEDGKRARADKQHVLDMLFSAFEKHQYYNLKDLVDITKQPVVYLKEILKEIGVQNVKGIHKNTWELKPEYRHYQGEEKSD
His-tagged Rap74
  binding result: binds
